B1: anti-CD3ε × anti-CD123-dsTrasKO2 (ID 34) (bispecific antibody)
light 1: not shown
heavy 1: not shown
heavy 2: EVQLQQSGPELVKPGASVKMSCKASGYTFTDYYMKWVKQSHGKSLEWIGDIIPSNGATFYNQKFKGKATLTVDRSSSTAYMHLNSLTSEDSAVYYCTRSHLLRASWFAYWGQGTLVTVSAGGGGSGGGGSEVQLVESGGGLVQPGGSLRLSCAASGFNIKDTYIHWVRQAPGKCLEWVAEIYPTNGYTEYADSVKGRFTISADTSKNTAYLQMNSLRAEDTAVYYCSRWGGDGFYAMDYWGQGTLVTVSSDKTHTCPPCPAPEAAGGPSVFLFPPKPKDTLMISRTPEVTCVVVDVSHEDPEVKFNWYVDGVEVHNAKTKPREEQYNSTYRVVSVLTVLHQDWLNGKEYKCKVSNKALPAPIEKTISKAKGQPREPQVCTLPPSRDELTKNQVSLSCAVKGFYPSDIAVEWESNGQPENNYKTTPPVLDSDGSFFLVSKLTVDKSRWQQGNVFSCSVMHEALHNRFTQKSLSLSPG
light 2: not shown
B2: anti-TNP × anti-CD123-dsTrasKO2 Negative control (ID 43) (bispecific antibody, human IgG1, kappa, L234A L235A)
light 1: DVVMTQSPLSLPVTLGQPASISCRSSQSLVHSIGNTYLHWYQQRPGQSPRLLIYKVSNRFSGVPDRFSGSGSGTDFTLKISRVEAEDVGVYYCSQSTHVPFTFGQGTKLEIKRTVAAPSVFIFPPSDEQLKSGTASVVCLLNNFYPREAKVQWKVDNALQSGNSQESVTEQDSKDSTYSLSSTLTLSKADYEKHKVYACEVTHQGLSSPVTKSFNRGEC
heavy 1: not shown
heavy 2: EVQLQQSGPELVKPGASVKMSCKASGYTFTDYYMKWVKQSHGKSLEWIGDIIPSNGATFYNQKFKGKATLTVDRSSSTAYMHLNSLTSEDSAVYYCTRSHLLRASWFAYWGQGTLVTVSAGGGGSGGGGSEVQLVESGGGLVQPGGSLRLSCAASGFNIKDTYIHWVRQAPGKCLEWVAEIYPTNGYTEYADSVKGRFTISADTSKNTAYLQMNSLRAEDTAVYYCSRWGGDGFYAMDYWGQGTLVTVSSDKTHTCPPCPAPEAAGGPSVFLFPPKPKDTLMISRTPEVTCVVVDVSHEDPEVKFNWYVDGVEVHNAKTKPREEQYNSTYRVVSVLTVLHQDWLNGKEYKCKVSNKALPAPIEKTISKAKGQPREPQVCTLPPSRDELTKNQVSLSCAVKGFYPSDIAVEWESNGQPENNYKTTPPVLDSDGSFFLVSKLTVDKSRWQQGNVFSCSVMHEALHNRFTQKSLSLSPG
light 2: not shown
B3: anti-CD3ε × anti-CD123-dsTrasKO2 (ID 37, alternative anti-CD3ε binding domain) (bispecific antibody)
light 1: DIVMTQTPLSLSVTPGQPASISCKSSQSLVHENLQTYLSWYLQKPGQSPQSLIYKVSNRFSGVPDRFSGSGSGTDFTLKISRVEAEDVGVYYCGQGTQYPFTFGSGTKVEIKRTVAAPSVFIFPPSDEQLKSGTASVVCLLNNFYPREAKVQWKVDNALQSGNSQESVTEQDSKDSTYSLSSTLTLSKADYEKHKVYACEVTHQGLSSPVTKSFNRGEC
heavy 1: not shown
heavy 2: EVQLQQSGPELVKPGASVKMSCKASGYTFTDYYMKWVKQSHGKSLEWIGDIIPSNGATFYNQKFKGKATLTVDRSSSTAYMHLNSLTSEDSAVYYCTRSHLLRASWFAYWGQGTLVTVSAGGGGSGGGGSEVQLVESGGGLVQPGGSLRLSCAASGFNIKDTYIHWVRQAPGKCLEWVAEIYPTNGYTEYADSVKGRFTISADTSKNTAYLQMNSLRAEDTAVYYCSRWGGDGFYAMDYWGQGTLVTVSSDKTHTCPPCPAPEAAGGPSVFLFPPKPKDTLMISRTPEVTCVVVDVSHEDPEVKFNWYVDGVEVHNAKTKPREEQYNSTYRVVSVLTVLHQDWLNGKEYKCKVSNKALPAPIEKTISKAKGQPREPQVCTLPPSRDELTKNQVSLSCAVKGFYPSDIAVEWESNGQPENNYKTTPPVLDSDGSFFLVSKLTVDKSRWQQGNVFSCSVMHEALHNRFTQKSLSLSPG
light 2: not shown
notes: also called anti-CD3ε × CD123-dsTrasKO2
B4: anti-CD3ε × anti-CD123 Wild Type (ID 33) (bispecific antibody)
light 1: not shown
heavy 1: not shown
heavy 2: EVQLQQSGPELVKPGASVKMSCKASGYTFTDYYMKWVKQSHGKSLEWIGDIIPSNGATFYNQKFKGKATLTVDRSSSTAYMHLNSLTSEDSAVYYCTRSHLLRASWFAYWGQGTLVTVSAASTKGPSVFPLAPSSKSTSGGTAALGCLVKDYFPEPVTVSWNSGALTSGVHTFPAVLQSSGLYSLSSVVTVPSSSLGTQTYICNVNHKPSNTKVDKKVEPKSCDKTHTCPPCPAPEAAGGPSVFLFPPKPKDTLMISRTPEVTCVVVDVSHEDPEVKFNWYVDGVEVHNAKTKPREEQYNSTYRVVSVLTVLHQDWLNGKEYKCKVSNKALPAPIEKTISKAKGQPREPQVCTLPPSRDELTKNQVSLSCAVKGFYPSDIAVEWESNGQPENNYKTTPPVLDSDGSFFLVSKLTVDKSRWQQGNVFSCSVMHEALHNRFTQKSLSLSPG
light 2: DFVMTQSPSSLTVTAGEKVTMSCKSSQSLLNSGNQKNYLTWYLQKPGQPPKLLIYWASTRESGVPDRFTGSGSGTDFTLTISSVQAEDLAVYYCQNDYSYPYTFGGGTKLEIKRTVAAPSVFIFPPSDEQLKSGTASVVCLLNNFYPREAKVQWKVDNALQSGNSQESVTEQDSKDSTYSLSSTLTLSKADYEKHKVYACEVTHQGLSSPVTKSFNRGEC
notes: Wild type bispecific IgG (first anti-CD3ε arm)
B5: anti-TNP × anti-CD123 Negative control Wild Type (ID 42) (bispecific antibody)
light 1: DVVMTQSPLSLPVTLGQPASISCRSSQSLVHSIGNTYLHWYQQRPGQSPRLLIYKVSNRFSGVPDRFSGSGSGTDFTLKISRVEAEDVGVYYCSQSTHVPFTFGQGTKLEIKRTVAAPSVFIFPPSDEQLKSGTASVVCLLNNFYPREAKVQWKVDNALQSGNSQESVTEQDSKDSTYSLSSTLTLSKADYEKHKVYACEVTHQGLSSPVTKSFNRGEC
heavy 1: not shown
heavy 2: EVQLQQSGPELVKPGASVKMSCKASGYTFTDYYMKWVKQSHGKSLEWIGDIIPSNGATFYNQKFKGKATLTVDRSSSTAYMHLNSLTSEDSAVYYCTRSHLLRASWFAYWGQGTLVTVSAASTKGPSVFPLAPSSKSTSGGTAALGCLVKDYFPEPVTVSWNSGALTSGVHTFPAVLQSSGLYSLSSVVTVPSSSLGTQTYICNVNHKPSNTKVDKKVEPKSCDKTHTCPPCPAPEAAGGPSVFLFPPKPKDTLMISRTPEVTCVVVDVSHEDPEVKFNWYVDGVEVHNAKTKPREEQYNSTYRVVSVLTVLHQDWLNGKEYKCKVSNKALPAPIEKTISKAKGQPREPQVCTLPPSRDELTKNQVSLSCAVKGFYPSDIAVEWESNGQPENNYKTTPPVLDSDGSFFLVSKLTVDKSRWQQGNVFSCSVMHEALHNRFTQKSLSLSPG
light 2: DFVMTQSPSSLTVTAGEKVTMSCKSSQSLLNSGNQKNYLTWYLQKPGQPPKLLIYWASTRESGVPDRFTGSGSGTDFTLTISSVQAEDLAVYYCQNDYSYPYTFGGGTKLEIKRTVAAPSVFIFPPSDEQLKSGTASVVCLLNNFYPREAKVQWKVDNALQSGNSQESVTEQDSKDSTYSLSSTLTLSKADYEKHKVYACEVTHQGLSSPVTKSFNRGEC
B6: anti-CD3ε-dsTrasKO2 × anti-CD123 (ID 35) (bispecific antibody)
light 1: not shown
heavy 1: not shown
heavy 2: EVQLQQSGPELVKPGASVKMSCKASGYTFTDYYMKWVKQSHGKSLEWIGDIIPSNGATFYNQKFKGKATLTVDRSSSTAYMHLNSLTSEDSAVYYCTRSHLLRASWFAYWGQGTLVTVSAASTKGPSVFPLAPSSKSTSGGTAALGCLVKDYFPEPVTVSWNSGALTSGVHTFPAVLQSSGLYSLSSVVTVPSSSLGTQTYICNVNHKPSNTKVDKKVEPKSCDKTHTCPPCPAPEAAGGPSVFLFPPKPKDTLMISRTPEVTCVVVDVSHEDPEVKFNWYVDGVEVHNAKTKPREEQYNSTYRVVSVLTVLHQDWLNGKEYKCKVSNKALPAPIEKTISKAKGQPREPQVCTLPPSRDELTKNQVSLSCAVKGFYPSDIAVEWESNGQPENNYKTTPPVLDSDGSFFLVSKLTVDKSRWQQGNVFSCSVMHEALHNRFTQKSLSLSPG
light 2: DFVMTQSPSSLTVTAGEKVTMSCKSSQSLLNSGNQKNYLTWYLQKPGQPPKLLIYWASTRESGVPDRFTGSGSGTDFTLTISSVQAEDLAVYYCQNDYSYPYTFGGGTKLEIKRTVAAPSVFIFPPSDEQLKSGTASVVCLLNNFYPREAKVQWKVDNALQSGNSQESVTEQDSKDSTYSLSSTLTLSKADYEKHKVYACEVTHQGLSSPVTKSFNRGEC
notes: CD3ε arm is the pseudoFab (dsTrasKO2); also called anti-CD3E-dsTrasKO2 × anti-CD123
B7: anti-CD3ε × anti-CD123 Wild Type (ID 36, alternative anti-CD3ε binding domain) (bispecific antibody)
light 1: DIVMTQTPLSLSVTPGQPASISCKSSQSLVHENLQTYLSWYLQKPGQSPQSLIYKVSNRFSGVPDRFSGSGSGTDFTLKISRVEAEDVGVYYCGQGTQYPFTFGSGTKVEIKRTVAAPSVFIFPPSDEQLKSGTASVVCLLNNFYPREAKVQWKVDNALQSGNSQESVTEQDSKDSTYSLSSTLTLSKADYEKHKVYACEVTHQGLSSPVTKSFNRGEC
heavy 1: not shown
heavy 2: EVQLQQSGPELVKPGASVKMSCKASGYTFTDYYMKWVKQSHGKSLEWIGDIIPSNGATFYNQKFKGKATLTVDRSSSTAYMHLNSLTSEDSAVYYCTRSHLLRASWFAYWGQGTLVTVSAASTKGPSVFPLAPSSKSTSGGTAALGCLVKDYFPEPVTVSWNSGALTSGVHTFPAVLQSSGLYSLSSVVTVPSSSLGTQTYICNVNHKPSNTKVDKKVEPKSCDKTHTCPPCPAPEAAGGPSVFLFPPKPKDTLMISRTPEVTCVVVDVSHEDPEVKFNWYVDGVEVHNAKTKPREEQYNSTYRVVSVLTVLHQDWLNGKEYKCKVSNKALPAPIEKTISKAKGQPREPQVCTLPPSRDELTKNQVSLSCAVKGFYPSDIAVEWESNGQPENNYKTTPPVLDSDGSFFLVSKLTVDKSRWQQGNVFSCSVMHEALHNRFTQKSLSLSPG
light 2: DFVMTQSPSSLTVTAGEKVTMSCKSSQSLLNSGNQKNYLTWYLQKPGQPPKLLIYWASTRESGVPDRFTGSGSGTDFTLTISSVQAEDLAVYYCQNDYSYPYTFGGGTKLEIKRTVAAPSVFIFPPSDEQLKSGTASVVCLLNNFYPREAKVQWKVDNALQSGNSQESVTEQDSKDSTYSLSSTLTLSKADYEKHKVYACEVTHQGLSSPVTKSFNRGEC

molecular target: T1, human CD123-Fc-His fusion protein (internal source) (human, UniProt P26951 19-305); assay: SPR, Biacore 8K; CD123-Fc-His captured by anti-His, antibody as analyte, 1:1 Langmuir fit
T1 construct: not shown: Fc and His tag
T1 sequence (looked up): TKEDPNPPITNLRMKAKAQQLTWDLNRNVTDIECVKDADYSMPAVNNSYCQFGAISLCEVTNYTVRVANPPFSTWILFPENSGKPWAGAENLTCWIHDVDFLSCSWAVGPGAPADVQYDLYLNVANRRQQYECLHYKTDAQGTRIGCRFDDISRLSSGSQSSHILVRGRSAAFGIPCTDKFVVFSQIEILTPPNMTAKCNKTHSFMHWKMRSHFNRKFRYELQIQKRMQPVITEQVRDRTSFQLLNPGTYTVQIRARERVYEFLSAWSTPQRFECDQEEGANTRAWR
Procedure: Binding of antigens to the antibody constructs was measured using surface plasmon resonance (SPR) with a BIAcore 8K instrument (GE Healthcare) with HBS-EP+ buffer (GE Healthcare). For binding kinetics and affinity determination human CD3εδ-Fc-His and human CD123-Fc-His fusion proteins (both from internal source) were used as antigens. The anti-His capture antibody (His capture kit, GE Life Sciences) was immobilized via primary amine groups (11000 RU) on a research grade CM5 chip (GE Life Sciences) using standard procedures. Antigens were captured by the anti-His capture chip surface at a flow rate of 10 μL/min for 90 sec to reach antibody binding levels between 10 and 30 RU. […] Dissociation was measured at 30 μL/min by injection of HBS-EP+ buffer for 1200 sec. The chip surface was regenerated by inject of regeneration buffer (His capture kit, GE Life Sciences). Sensorgrams were double referenced with a blank chip surface and H BS-EP+ buffer blanks. Data were fitted with a 1:1 Langmuir binding model for determination of kinetic and affinity constants ka, kd and KD using Biacore 8K Evaluation software v1.11.7442 (GE Healthcare).

**Q.** B1 was tested. Which Kd did it give?
**A.** The Kd was 0.239 nM.

**Q.** For B2, which Kd is on record?
**A.** The Kd was 0.546 nM.

**Q.** B3 was tested. Which Kd did it give?
**A.** Its Kd is 0.386 nM.

**Q.** B4 was tested. Which Kd did it give?
**A.** The Kd was 0.212 nM.

**Q.** With B5 as the binder, how does the Kd read?
**A.** Its Kd is 0.231 nM.

**Q.** B6 was tested. Which Kd did it give?
**A.** Its Kd is 0.257 nM.

**Q.** For B7, which Kd is on record?
**A.** The Kd was 0.352 nM.

— US20230391888A1 (Sanofi, published 2023)
